Patent US11419948B2, “Functionalized microgels with fibrin binding elements” (Georgia Tech Research Corporation, priority 2013, dated 2022)

T1: fibrin clot polymerization (Homo sapiens, UniProt P02671+P02675+P02679)
T1 sequence (P02671 36-866 limits assumed): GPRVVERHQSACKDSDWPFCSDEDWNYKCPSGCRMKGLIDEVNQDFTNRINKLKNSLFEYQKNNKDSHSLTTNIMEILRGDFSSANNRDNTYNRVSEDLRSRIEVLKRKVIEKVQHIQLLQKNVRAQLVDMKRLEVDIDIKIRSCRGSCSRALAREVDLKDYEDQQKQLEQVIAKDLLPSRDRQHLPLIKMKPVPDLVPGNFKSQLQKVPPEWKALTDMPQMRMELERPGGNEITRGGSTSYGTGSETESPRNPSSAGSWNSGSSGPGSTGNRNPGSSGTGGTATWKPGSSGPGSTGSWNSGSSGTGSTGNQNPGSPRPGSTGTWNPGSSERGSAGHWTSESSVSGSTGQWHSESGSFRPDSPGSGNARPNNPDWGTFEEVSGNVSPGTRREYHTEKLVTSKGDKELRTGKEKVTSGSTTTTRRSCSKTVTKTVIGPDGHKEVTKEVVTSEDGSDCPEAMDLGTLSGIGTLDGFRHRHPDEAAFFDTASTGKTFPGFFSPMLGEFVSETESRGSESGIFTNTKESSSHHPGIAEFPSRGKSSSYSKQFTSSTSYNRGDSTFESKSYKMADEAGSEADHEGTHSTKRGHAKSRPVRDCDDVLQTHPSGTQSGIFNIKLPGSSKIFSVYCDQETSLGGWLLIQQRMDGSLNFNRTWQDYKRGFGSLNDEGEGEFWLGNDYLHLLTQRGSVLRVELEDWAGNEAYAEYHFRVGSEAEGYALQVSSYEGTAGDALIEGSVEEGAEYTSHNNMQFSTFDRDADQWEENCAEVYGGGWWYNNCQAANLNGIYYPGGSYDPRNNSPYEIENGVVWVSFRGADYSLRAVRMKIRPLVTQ
T1 sequence (P02675 45-491 limits assumed): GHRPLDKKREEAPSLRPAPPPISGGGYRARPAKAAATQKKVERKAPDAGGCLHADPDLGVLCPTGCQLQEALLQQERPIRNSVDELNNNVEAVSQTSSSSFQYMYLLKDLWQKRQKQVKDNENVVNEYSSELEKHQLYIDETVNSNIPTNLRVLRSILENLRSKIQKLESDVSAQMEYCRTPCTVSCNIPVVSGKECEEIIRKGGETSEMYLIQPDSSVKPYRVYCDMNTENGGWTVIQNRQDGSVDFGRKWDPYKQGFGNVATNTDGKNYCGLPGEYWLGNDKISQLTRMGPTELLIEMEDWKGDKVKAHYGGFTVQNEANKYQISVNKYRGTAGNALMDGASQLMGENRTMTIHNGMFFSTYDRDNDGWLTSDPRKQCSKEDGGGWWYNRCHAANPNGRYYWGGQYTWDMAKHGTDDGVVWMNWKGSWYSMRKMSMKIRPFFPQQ
T1 sequence (P02679 27-453): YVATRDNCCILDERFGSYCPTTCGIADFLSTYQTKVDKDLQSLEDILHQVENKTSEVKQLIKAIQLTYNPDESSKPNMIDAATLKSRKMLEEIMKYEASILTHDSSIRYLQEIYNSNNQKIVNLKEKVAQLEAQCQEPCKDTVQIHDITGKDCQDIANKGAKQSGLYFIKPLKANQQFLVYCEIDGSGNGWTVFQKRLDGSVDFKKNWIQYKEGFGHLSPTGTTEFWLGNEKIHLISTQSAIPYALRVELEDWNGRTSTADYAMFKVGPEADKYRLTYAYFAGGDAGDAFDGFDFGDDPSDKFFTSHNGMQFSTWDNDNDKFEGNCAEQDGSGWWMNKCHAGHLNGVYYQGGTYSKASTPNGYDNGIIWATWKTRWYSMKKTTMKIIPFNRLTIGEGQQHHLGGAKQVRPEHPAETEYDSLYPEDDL


Legend:
traumatic injury = test: Hemostasis in rodents following traumatic injury; format: in vivo; conditions: 100 mg/kg intravenously
fibrin E Regions = test: ELISA against adsorbed fibrin E Regions; format: binding; conditions: E Region dilutions
Method: This was determined through ELISAs against plates coated with adsorbed fibrin D-Dimers or E Regions.
ELISA set-up and analysis was identical to that performed for the plasma-binding ELISA, the main exception being a substitution of human plasma dilutions for D-Dimer or E Region dilutions adsorbed to the 96-well plates. Both D-Dimer and […]

[1] = target: T1, fibrin clot polymerization; test: Turbidity assay of fibrin clot polymerization; format: biochemical
Method: H6 interference with fibrin clot polymerization was determined through turbidity and clottability assays. The turbidity assay involved polymerizing physiological fibrin clots (2 mg/mL) in wells of a 96-well plate while taking absorbance measurements at 350 nm every 30 seconds. An increase in absorbance correlates to an increase in clot “cloudiness” which, in turn, indicates gelation. Turbidity of standard fibrin clots was compared to that of clots exposed to varying molar concentrations ranging from 1:1 to 1:1000 molar ratios of nanobody to fibrinogen.

Row | Molecule | augmentation of hemostasis (traumatic injury) | binding to E Region (fibrin E Regions) | turbidity versus fibrin controls ([1]; all other molar ratios) | turbidity versus fibrin controls ([1]; molar ratio to fibrinogen 1:1, differences not significant)
1 | PLPs: ultra-low crosslinked pNIPAm-AAc microgels conjugated to fibrin-specific sdFv H6 (conjugate) VH: QVQLLESGGGLVQPGGSLRLSCAASGDRFTHNDMGWVRQAPGKGLEWVSTIPTTDGSTYYADSVKGRFTISRDNSKSTLYLQMNSLRAEDTAVYYCATGYMWKAPAYVKYWGQGTLVTVSSAAAEQKLISEEDLNSAAHYTDIG | effective to augment hemostasis | – | – | –
2 | H6: fibrin-specific human sdFv clone from phage biopanning, SEQ ID NO: 1 (protein) VHH: QVQLLESGGGLVQPGGSLRLSCAASGDRFTHNDMGWVRQAPGKGLEWVSTIPTTDGSTYYADSVKGRFTISRDNSKSTLYLQMNSLRAEDTAVYYCATGYMWKAPAYVKYWGQGTLVTVSSAAAEQKLISEEDLNSAAHYTDIG | – | negligible binding | indistinguishable from physiological fibrin controls | notable difference in turbidity readings
